From paper PMC12419008

Legend:
Assay in all cases: SPR
FcγRIIIa (F158) (human) = FcγRIIIa (F158) (human) (UniProt P08637)
FcγRIIIa (V158) (human) = biological target: FcγRIIIa (V158) (human)
FcγRIIa (R131) (human) = biological target: FcγRIIa (R131) (human)
FcγRIIb (human) = FcγRIIb (human) (UniProt P31994)
FcγRIIa (H131) (human) = FcγRIIa (H131) (human) (UniProt P12318)
FcγRI (human) = FcγRI (human) (UniProt P12314)
[1] = biological target: APG777 (human (humanized IgG1))

Chain of UniProt P31994 (P31994 43-217): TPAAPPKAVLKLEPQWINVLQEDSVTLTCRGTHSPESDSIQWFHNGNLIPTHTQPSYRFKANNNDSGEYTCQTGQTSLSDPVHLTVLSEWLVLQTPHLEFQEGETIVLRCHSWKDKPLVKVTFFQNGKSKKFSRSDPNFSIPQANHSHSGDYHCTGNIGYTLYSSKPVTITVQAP
Chain of UniProt P12314 (P12314 16-292): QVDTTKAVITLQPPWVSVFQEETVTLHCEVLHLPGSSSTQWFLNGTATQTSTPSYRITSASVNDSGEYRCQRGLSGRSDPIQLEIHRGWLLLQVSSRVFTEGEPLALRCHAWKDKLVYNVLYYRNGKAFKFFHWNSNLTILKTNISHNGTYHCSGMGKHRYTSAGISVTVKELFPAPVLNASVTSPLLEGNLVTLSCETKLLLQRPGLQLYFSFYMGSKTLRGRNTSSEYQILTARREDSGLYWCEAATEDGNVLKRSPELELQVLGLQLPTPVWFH
Chain of FcγRIIIa (V158) (human) (P08637 17-208): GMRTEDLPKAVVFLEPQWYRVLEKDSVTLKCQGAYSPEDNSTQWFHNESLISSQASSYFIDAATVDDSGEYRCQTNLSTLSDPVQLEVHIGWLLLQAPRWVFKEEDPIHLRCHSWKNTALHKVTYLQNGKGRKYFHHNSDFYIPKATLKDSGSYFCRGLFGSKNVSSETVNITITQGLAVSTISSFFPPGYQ
Chain of FcγRIIa (R131) (human) (P12318 34-217): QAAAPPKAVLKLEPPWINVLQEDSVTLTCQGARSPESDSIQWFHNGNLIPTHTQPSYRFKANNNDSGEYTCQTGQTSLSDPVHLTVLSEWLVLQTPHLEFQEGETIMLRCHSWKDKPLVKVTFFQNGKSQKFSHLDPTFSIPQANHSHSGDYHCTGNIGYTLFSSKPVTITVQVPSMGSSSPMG

Substance	Kd (FcγRIIIa (F158) (human))	Kd (FcγRIIIa (V158) (human))	Kd (FcγRIIa (R131) (human))	Kd (FcγRIIb (human))	Kd (FcγRIIa (H131) (human))	Kd (FcγRI (human))	Kd [1]
rituximab (antibody)	0.957 µM	0.193 µM	5.95 µM	15.3 µM	2930 nM	–	–
APG777 (antibody)	56.2 µM	12.1 µM	–	–	–	7.88 µM	–
human neonatal Fc receptor (huFcRn) (from UniProt P55899 24-365)	–	–	–	–	–	–	94.4 nM
